Legend:
[1] = biological target: Nonphosphorylated, SAG21k-bound FLAG-tagged mouse Smoothened (residues 64-674) S570C (mouse) (UniProt P56726); assay: cross-linking; disulfide trapping with 5 mM diamide, 1 h, room temperature; FLAG-SMO (4 ul of 12.5 uM) and PKA-C (4 ul of 6.25 uM) in 10 ul, 20 mM HEPES, 150 mM NaCl, 0.025% GDN, SAG21k, 1 mM ATP, 10 mM MgCl2, pH 8.0; non-reducing SDS-PAGE
[2] = biological target: GRK2-phosphorylated FLAG-tagged mouse Smoothened (residues 64-674), wild type (mouse) (UniProt P56726); assay: SPR; biotinylated SMO nanodiscs captured (Biotin CAPture kit, 250-350 RU); myr-PKA-Cα-K7C 16 nM-1 uM injected; 20 mM MOPS pH 7.0, 150 mM NaCl, 100 uM EDTA, 1 mM ATP, 10 mM MgCl2, 0.001% P20, 25 °C; Biacore 3000; steady-state analysis
[3] = biological target: GRK2-phosphorylated FLAG-tagged mouse Smoothened (residues 64-674) I573A F577A R580A (mouse) (UniProt P56726); assay: as above

percent of the disulfide trapping that depends on SMO phosphorylation (against pSMO S570C) [1] [%] | Kd [2] [nM] | Kd [3] [nM] | Substance
54 |  |  | Mouse PKA-C G136C in the minimal-cysteine ((−)Cys, C199A) background (enzyme)
 | 82 | 222 | Myristoylated PKA-Cα K7C (enzyme)
